{
  "source": "paper doi:10.1101/768242",
  "about": "(bioRxiv, 2019)",
  "key": {"[1]": {"biological_target": "T1, phospho-Ser45-β-catenin (pS45-β-catenin) (human, UniProt P35222 1-781, phosphoserine at 45)", "T1 sequence": "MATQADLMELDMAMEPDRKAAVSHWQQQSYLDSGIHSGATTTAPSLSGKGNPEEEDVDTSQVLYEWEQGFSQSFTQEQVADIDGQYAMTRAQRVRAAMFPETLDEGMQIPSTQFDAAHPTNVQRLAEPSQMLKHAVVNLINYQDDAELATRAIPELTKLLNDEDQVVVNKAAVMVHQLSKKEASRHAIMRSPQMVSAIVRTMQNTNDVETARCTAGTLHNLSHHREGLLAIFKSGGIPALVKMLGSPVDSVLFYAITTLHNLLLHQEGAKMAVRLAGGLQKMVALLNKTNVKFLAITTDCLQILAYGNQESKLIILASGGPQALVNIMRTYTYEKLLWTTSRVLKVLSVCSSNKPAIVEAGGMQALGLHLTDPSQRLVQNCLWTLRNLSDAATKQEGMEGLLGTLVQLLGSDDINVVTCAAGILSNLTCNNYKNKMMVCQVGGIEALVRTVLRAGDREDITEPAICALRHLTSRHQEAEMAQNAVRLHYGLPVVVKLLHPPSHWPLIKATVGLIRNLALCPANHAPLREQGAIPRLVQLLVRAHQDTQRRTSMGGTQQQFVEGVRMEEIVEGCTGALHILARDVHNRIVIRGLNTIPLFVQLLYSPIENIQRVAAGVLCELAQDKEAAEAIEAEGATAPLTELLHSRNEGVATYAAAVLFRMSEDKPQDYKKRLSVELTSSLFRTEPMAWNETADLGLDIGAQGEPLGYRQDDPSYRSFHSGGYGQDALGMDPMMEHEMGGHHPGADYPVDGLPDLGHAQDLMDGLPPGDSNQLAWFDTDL", "assay": "BLI"}, "GSK3β": {"biological_target": "GSK3β (human, UniProt P49841 1-420, phosphorylated on the activation loop Tyr216)", "sequence (P49841 whole entry)": "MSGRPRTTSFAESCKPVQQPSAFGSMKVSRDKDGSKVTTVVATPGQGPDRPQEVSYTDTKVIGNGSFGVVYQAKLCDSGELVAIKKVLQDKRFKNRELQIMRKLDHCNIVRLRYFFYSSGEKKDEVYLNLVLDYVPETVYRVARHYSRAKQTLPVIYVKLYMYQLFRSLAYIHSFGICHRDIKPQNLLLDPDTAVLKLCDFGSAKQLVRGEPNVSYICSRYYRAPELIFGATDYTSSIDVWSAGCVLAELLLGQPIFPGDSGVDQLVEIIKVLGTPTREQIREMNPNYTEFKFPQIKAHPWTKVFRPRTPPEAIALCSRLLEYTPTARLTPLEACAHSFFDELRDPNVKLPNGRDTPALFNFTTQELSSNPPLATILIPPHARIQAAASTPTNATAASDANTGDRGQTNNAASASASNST", "assay": "BLI"}},
  "data": [
    {"binder": "Axin_(384-518) (miniAxin) (domain or fragment) EPQKFAEELIHRLEAVQRTREAEEKLEERLKRVRMEEEGEDGDPSSGPPGPCHKLPPAPAWHHFPPRCVDMGCAGLRDAHEENPESILDEHVQRVLRTPGRQSPGPGHRSPDSGHVAKMPVALGGAASGHGKHVP", "values": [
      {"measurement": "Kd", "setting": "[1]", "value": 4000, "unit": "nM"},
      {"measurement": "Kd", "setting": "GSK3β", "value": 16, "unit": "nM"}
    ]}
  ]
}
